Measured values reported in US20190169311A1.
pEC50, pKd: −log10 of the molar value.

Legend:
TFECDHis (human) [1] = molecular target: TFECDHis (human) (UniProt P13726); assay: ELISA, coated TFECDHis; mean of 3 experiments
TFECDHis (human) [2] = molecular target: TFECDHis (human) (UniProt P13726); assay: cross-competition ELISA; competitor: coated 11
TFECDHis (human) [3] = molecular target: TFECDHis (human) (UniProt P13726); assay: cross-competition ELISA; competitor: coated 44
TFECDHis (human) [4] = molecular target: TFECDHis (human) (UniProt P13726); assay: cross-competition ELISA; competitor: coated 101
TFECDHis (human) [5] = molecular target: TFECDHis (human) (UniProt P13726); assay: cross-competition ELISA; competitor: coated 111
TFECDHis (human) [6] = molecular target: TFECDHis (human) (UniProt P13726); assay: cross-competition ELISA; competitor: coated 114
TFECDHis (human) [7] = molecular target: TFECDHis (human) (UniProt P13726); assay: cross-competition ELISA; competitor: coated 087-Lg6
TFECDHis (human) [8] = molecular target: TFECDHis (human) (UniProt P13726); assay: cross-competition ELISA; competitor: coated 092-A09
TFECDHis (human) [9] = molecular target: TFECDHis (human) (UniProt P13726); assay: SPR (BIAcore 3000), antibody immobilized, TFECDHis as analyte

pEC50 (TFECDHis (human) [1]): 9.80
competition value (unit not given) (TFECDHis (human) [2]): 20
competition value (unit not given) (TFECDHis (human) [3]): 143
competition value (unit not given) (TFECDHis (human) [4]): 23
competition value (unit not given) (TFECDHis (human) [5]): 175
competition value (unit not given) (TFECDHis (human) [6]): 19
competition value (unit not given) (TFECDHis (human) [7]): 929
competition value (unit not given) (TFECDHis (human) [8]): 21
pKd (TFECDHis (human) [9]): 8.50
Substance: HuMab-TF-011 (antibody)
